Reference: PMC9468479

Columns and labels:
[1] = biological target: SARS-CoV-2 wild-type Wuhan-Hu-1 spike protein (2019-nCoV spike protein) (SARS-CoV-2 (Wuhan-Hu-1)) (UniProt P0DTC2); assay: SPR
[2] = biological target: Wuhan-Hu-1 SARS-CoV-2 receptor binding domain (2019-nCoV spike RBD) (SARS-CoV-2 (Wuhan-Hu-1)) (UniProt P0DTC2); assay: SPR

## Urtica dioica agglutinin (UDA) (natural protein)
[1]
  Kd: 0.007 µM
[2]
  Kd: 0.022 µM
